Results published in article PMC2447818.

Biological target: GFP-VIM (lens vimentin fused to green fluorescence protein) (UniProt P08670)
Experiment: FRET or BRET; FRET acceptor photobleaching by confocal laser scanning microscopy in living HeLa cells, 48 h after co-transfection; GFP fusion as donor, RFP fusion as acceptor; RFP bleached at 543 nm for 45 s in a region of interest or a whole cell; E=1 – F(GFP-min)/F(GFP-max)

Chain of GFP-VIM (lens vimentin fused to green fluorescence protein) (P08670 2-466): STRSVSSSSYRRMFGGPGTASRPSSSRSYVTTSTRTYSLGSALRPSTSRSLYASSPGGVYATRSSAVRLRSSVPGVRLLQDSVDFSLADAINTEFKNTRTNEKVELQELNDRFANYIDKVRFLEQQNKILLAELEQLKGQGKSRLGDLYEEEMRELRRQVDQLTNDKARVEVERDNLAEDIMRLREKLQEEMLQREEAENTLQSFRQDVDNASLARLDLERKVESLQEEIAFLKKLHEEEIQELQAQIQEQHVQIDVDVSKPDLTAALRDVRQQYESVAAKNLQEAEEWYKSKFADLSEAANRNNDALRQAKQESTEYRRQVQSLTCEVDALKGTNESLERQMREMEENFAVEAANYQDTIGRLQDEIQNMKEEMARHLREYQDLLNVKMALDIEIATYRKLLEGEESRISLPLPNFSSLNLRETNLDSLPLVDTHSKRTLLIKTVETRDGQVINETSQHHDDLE
Chain of RFP-αB (wild-type αB-crystallin fused to red fluorescence protein) (P02511 whole entry, the tested form may be a part): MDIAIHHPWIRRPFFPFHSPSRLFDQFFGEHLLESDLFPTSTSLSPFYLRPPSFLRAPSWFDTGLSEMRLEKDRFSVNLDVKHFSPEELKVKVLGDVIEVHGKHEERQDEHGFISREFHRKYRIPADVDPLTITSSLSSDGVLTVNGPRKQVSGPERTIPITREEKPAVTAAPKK

FRET efficiency (one representative cell): 9.5%
Substance: RFP-αB (wild-type αB-crystallin fused to red fluorescence protein) (from UniProt P02511 1-175) (natural protein)
